“Also recorded” adds a separate entry of the source. Like-named read-outs stand apart in the source and are kept apart here.
Key:
TrioGEFD2 [1] = biological target: T1, TrioGEFD2 (Homo sapiens, UniProt O75962); test: Yeast Exchange Assay (YEA), RhoA activation; format: cell-based; conditions: yeast strain TAT7, reporter gene
From the text: (§1) The wild type GTPase is fused to the LexA DNA binding domain (Matchmaker GAL4 two-hybrid, Clontech Laboratories, Inc., USA) and the effector to the […] (Matchmaker GAL4 two-hybrid, Clontech, Inc., USA). Under these conditions, no binding occurs in the TAT7 strain (De Toledo et al., 2000). Upon addition of a third plasmid expressing the GEF, the GTPase gets activated and binds to its effector, thus leading to the transactivation of the reporter gene LacZ.
TrioGEFD2, a control GEF (GEF720) or an empty vector (−GEF: corresponds to a vector without GEF) were introduced into the YEA system and analysed for their ability to transactivate the reporter gene in absence (left panel) or in the presence (right panel) of TRIPα.
(§2) In order to better characterise the effect of TRIAPα on the Trio full length RhoGEF activity, the yeast exchange assay (YEA) was used, which is a quick and quantitative test derived from the classical two-hybrid system allowing to measure Rho-GEF activity and specificity (De Toledo et al., 2000). This functional assay is based on the fact that the GTPase binds to its effector only if it is activated by a RhoGEF. Briefly, yeasts are transformed with the GTPase fused to the LexA binding domain (LexA), and its effector to the GAL-4 Activating Domain (GAD), and with the adequate Rho-GEF partner in the yeast strain TAT7 (FIG. 7). […]

TrioGEFD2 [2] = biological target: T1, TrioGEFD2; test: In vitro guanine nucleotide exchange (GEF) assay on RhoA; format: biochemical; design: using recombinant GST-TrioGEFD2 (a.a. 1848-2298), TrioDH2 (a.a. 1848-2096); made in house; key to in vitro GEF assay (inhibition): +++^2 and +^2 represent respectively a full and a partial (see FIG. 3) inhibitory effect; +++^2 and +^2 represent respectively a full and a partial (see FIG. 3) inhibitory effect; −−^2 represents a lack of inhibitory effect; conditions: for Inhibition of TrioGEFD2 exchange activity on RhoA in vitro: 20-fold molar excess (8 μM) inhibitor, 0.4 μM GST-GEFD2, 0.3 μM [3H]GDP-RhoA, 15 min; for IC50: 0.4 μM GST-GEFD2, 0.3 μM RhoA, increasing amounts of GST-TRIAPα, read-out: apparent half-inhibitory concentration (inhibition of TrioGEFD2)
Protocol: For that purpose, aptamers, TrioGEFD2 and RhoA are expressed as GST-fusion proteins. RhoA is loaded with ^3H-GDP, and the release of GDP is followed after addition of GEFD2 in presence or in absence of the selected aptamers (as described in Debant et al., 1996).
A 20-fold molar excess (8 μM) of GST-aptamers TRIAPα, TRIAPβ (another TrioGEFD2 binding aptamer), TRIAPγ (another TrioGEFD2 binding aptamer) or the empty thioredoxine (Trx) were pre-incubated with 0.4 μM GST-GEFD2 (left side of FIG. 2A) or 0.4 μM GST-DH2 (right side of FIG. 2A), as indicated, before adding 0.3 μM of [^3H]GDP loaded GST-RhoA. The exchange activity was monitored by the decrease of [^3H]GDP bound-RhoA after 15 min (see Materials and Methods). The amount of [^3H]GDP bound-RhoA incubated without GEF (first bar on the left) was defined as 100% The values and errors bars were calculated from at least three independent experiments.
0.4 μM GST-GEFD2 were incubated with increasing amounts of GST-TRIAPα (grey bars) or GST (black bars), and the exchange assay was then performed on 0.3 μM RhoA, as described in A.
An in vitro guanine nucleotide exchange (GEF) assay was used to test whether the TrioGEFD2-binding aptamers could inhibit the catalytic activity of TrioGEFD2 towards RhoA. For this purpose, the aptamers TRIAPα, TRIAPβ and TRIAPγ (including the Trx gene) were excised from pEG202 as EcoRI/NotI fragments and cloned into pGEX4T1 EcoRI/NotI. The aptamers were then expressed and purified from bacteria as GST fusion proteins, using standard procedures (Smith and Johnson, 1988). GTPase-GST fusion proteins were prepared, loaded with [^3H]GDP and the guanine nucleotide release assays were performed as described (Debant et al., 1996), using recombinant GST-TrioGEFD2 (a.a. 1848-2298), TrioDH2 (a.a. 1848-2096). For each point, 0.3 μM GTPase was mixed with or without 0.4 μM GEF in presence of non-labeled GTP, and the reaction mix was filtered after 0 min and 15 mm reaction at 25° C. The catalytic activity of TrioGEFD2 was thus measured by the decrease of the GTPase-associated radioactivity. The results are expressed as the ratio “exchange after 15 min over exchange after 0 min” (% bound [^3H]GDP-RhoA). To measure the effect of the aptamers on the exchange activity, a 20-fold molar excess of GST-TRIAPs was pre-incubated with GEFD2 (or GEFD1) for 30 min on ice before the exchange assay was carried out. For each experiment, data were obtained in triplicate.

Full length Trio (RhoG) = biological target: T2, Full length Trio (RhoG) (Homo sapiens, UniProt O75962); test: Yeast Exchange Assay (YEA), full length Trio on RhoG; format: cell-based; design: key to activation of the reporter gene by full length Trio, RhoG: “+ +” represents a slight activation of the reporter gene; “+ + + +” represents a strong activation of the reporter gene; “−” represents no activation of the reporter gene
T2 construct: Full length Trio was introduced into the YEA; expressed in transfected cells; host or cells: yeast strain TAT7
From the text: as §1
Full length Trio was introduced into the YEA and tested for its ability to activate RhoA and RhoG respectively, in the presence or absence of TRIPα. The table below summarizes the effect of TRIPα on Trio as schematized in this Figure.
as §2

Molecule | Inhibition of TrioGEFD2-mediated RhoA activation in the YEA system (TrioGEFD2 [1]) | Inhibition of TrioGEFD2 exchange activity on RhoA in vitro (TrioGEFD2 [2]) | activation of the reporter gene by full length Trio, RhoG (Full length Trio (RhoG); +TRIPα (−TRIPα: + +)) | IC50 (TrioGEFD2 [2]; listed as OST-TRIAPα) | IC50 (TrioGEFD2 [2]) | in vitro GEF assay (inhibition) (TrioGEFD2 [2]; RhoGEF TrioDH2PH2) | Effect on full-length Trio (TrioGEFD1) activation of RhoG in the YEA system (Full length Trio (RhoG))
AREGADGAICGYNLATLVMLGPSERVFCPLCEPCSSDIYELM [TRIPα, 42-amino acid peptide corresponding to the variable region of TRIAPα] | inhibits TrioGEFD2-mediated RhoA activation | inhibits TrioGEFD2 activity to a similar level than TRIAPα; also recorded: as potent as TRIAPα | + + + + |  |  |  | 
TRIAPα: aptamer of 154 amino acids: variable region of 42 amino acids inserted into the thioredoxin protein; tested as GST fusion (protein) MSDKIIHLTDDSFDTDVLKADGAILVDFWAEWCGPAREGADGAICGYNLATLVMLGPSERVFCPLCEPCSSDIYELMGPCKMIAPILDEIADEYQGKLTVAKLNIDQNPGTAPKYGIRGIPTLLLFKNGEVASATKVGALSKGQLKEFLDANLA | blocked specifically TrioGEFD2-mediated activation of RhoA | potent inhibitor of TrioGEFD2 activity; also recorded: inhibits |  | ~4 µM | 4 µM | +++^2 | greatly enhanced TrioGEFD1 activation of RhoG
